The record followed here is the RNAGym collection of RNA variant scans (doi:10.1073/pnas.2313332121).

Sequences and labels used below:
B1: TPR t1 (parent)
chain: GACCAAUCUGCCCUCAGAGCUCGAGAACAUCUUCGGAUGCAGAGGAGGCAGGCUUCGGUGGCGCGAUAGCGCCAACGUCCUCAACCUCCAAUGCAUCCCACCACAUGAUGAUGCCUGAAGAGCCUUGGUUUUUUG

In the data set the parent is B1. Put plainly: polymerase ribozyme fitness, log enrichment relative to wild type (log ratio); higher = more active; in vitro selection for triplet polymerase activity. Put shortly: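 For each subunit of a heterodimeric triplet polymerase ribozyme, a mutant library was built by PCR and transcribed, then taken through a single in vitro selection round in triplicate. Selection involved annealing to a biotinylated primer, the partner subunit and triplets, incubation frozen at −7 °C, gel excision of extended constructs, capture on streptavidin beads and RT-PCR. Genotypes were retained after Illumina sequencing of inputs and outputs only with ≥10 input reads and ≥1 read in each output. Fitness is defined as the logarithm of a genotype's enrichment relative to wild-type enrichment, using inverse-variance-weighted averages across replicates, with the logarithm taken to base 2.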
As for G42C G71U A84U, the “polymerase ribozyme fitness (log ratio)” value is -3.18.
Take G42C U116C U125A: the “polymerase ribozyme fitness (log ratio)” value is -3.61.
G42A G48A C80A U96A: the “polymerase ribozyme fitness (log ratio)” value was -6.92.
With G42U A46U, the “polymerase ribozyme fitness (log ratio)” value was -1.99.
Regarding G42A C98U, the “polymerase ribozyme fitness (log ratio)” value was -2.55.
Regarding G42A C88A, the “polymerase ribozyme fitness (log ratio)” value was -1.56.
Regarding G42A C88G, the “polymerase ribozyme fitness (log ratio)” value was -2.63.
As to G42U U54A G110U U133G, the “polymerase ribozyme fitness (log ratio)” value is -4.37.
The value for G42C G44C was -0.912; that for A43C C85G A90G C98A was -7.04.
Regarding G42U G58C U87C, the “polymerase ribozyme fitness (log ratio)” value is -0.174.
In the case of G42C G69U A91U C102U, the “polymerase ribozyme fitness (log ratio)” value was -0.697.
To G42A U112G belongs -2.1.
The value for G42C C72U G113C was -2.98; that for G42U C56U G127U was -2.75.
In the case of G42U G71A A100U, the “polymerase ribozyme fitness (log ratio)” value is -4.8.
With G42A G48A G69C, the “polymerase ribozyme fitness (log ratio)” value is -4.05.
On to G42U C73A U125A, for which the “polymerase ribozyme fitness (log ratio)” value is -1.74.
As to G42C G128A, the “polymerase ribozyme fitness (log ratio)” value was -3.12.
On to G42C G128C, for which the “polymerase ribozyme fitness (log ratio)” value was -4.09.
For G42A G44A C62U G63A U112G G120C, the “polymerase ribozyme fitness (log ratio)” value is -5.64.
To G42U U92A belongs -2.25.
For the variant A43C C56U C82A A91U G93U U96C C124G, the “polymerase ribozyme fitness (log ratio)” value was -2.46.
Turning to A43C A68G U109A G117U, the “polymerase ribozyme fitness (log ratio)” value was -6.95.
Turning to G42U C56U, the “polymerase ribozyme fitness (log ratio)” value was -1.29.
Regarding G42U C56G, the “polymerase ribozyme fitness (log ratio)” value was -1.08.
For G42C G47U G52C C114A A118G, the “polymerase ribozyme fitness (log ratio)” value is -6.7.
As to A43C C56A, the “polymerase ribozyme fitness (log ratio)” value is -2.98.
On to G42U G47C C49G, for which the “polymerase ribozyme fitness (log ratio)” value is -2.84.
In the case of A43C G47A, the “polymerase ribozyme fitness (log ratio)” value is -4.53.
As for G42U A43C C104U, the “polymerase ribozyme fitness (log ratio)” value is -0.998.
For G42U A50C C62U A84G C114G, the “polymerase ribozyme fitness (log ratio)” value was -4.07.
To G42U G47U belongs -1.51.
For the variant G42U G47C, the “polymerase ribozyme fitness (log ratio)” value was -5.66.
For the variant G42A G44A A50C C115A, the “polymerase ribozyme fitness (log ratio)” value is -4.02.
The value for G42A G47U G57U G58U was -3.58; that for G42C G113C was -2.1.
As to A43C C49U, the “polymerase ribozyme fitness (log ratio)” value was -3.72.
For the variant A43C C49A, the “polymerase ribozyme fitness (log ratio)” value was -3.08.
Take A43C C49G: the “polymerase ribozyme fitness (log ratio)” value was -3.17.
The value for G42A G110U was -3.64; that for A43C G48C G113C A119C G120U A121G was -2.55.
For G42U A50C U92C, the “polymerase ribozyme fitness (log ratio)” value is -2.73.
On to G42C C70G, for which the “polymerase ribozyme fitness (log ratio)” value is -5.52.
Consider A43C G61U C85U, for which the “polymerase ribozyme fitness (log ratio)” value is -2.37.
Regarding A43C G63C C102A A121U C123U, the “polymerase ribozyme fitness (log ratio)” value was -5.76.
Take G42U A50C A83G C97G C99U U106A G113U C124A: the “polymerase ribozyme fitness (log ratio)” value was -7.66.
A43C G47A C56U G57A C62U A103C: the “polymerase ribozyme fitness (log ratio)” value is -6.45.
Consider A43G A74G C89U U109G, for which the “polymerase ribozyme fitness (log ratio)” value was -7.22.
Consider G42A C88A G110A, for which the “polymerase ribozyme fitness (log ratio)” value was -4.27.
As to G42A G47C C82U A84G, the “polymerase ribozyme fitness (log ratio)” value is -3.91.
Consider A43C C53G C70U A95C, for which the “polymerase ribozyme fitness (log ratio)” value was -5.1.
The value for G42A G117C A119U was -3.55; that for G42A C89A A108G was -4.56.
To A43G C49G C98U G120C belongs -3.88; to G42C A91G G113U, -3.17.
As to G42U U54G A68G, the “polymerase ribozyme fitness (log ratio)” value was -5.22.
G42U C72G C99A A103C C123U: the “polymerase ribozyme fitness (log ratio)” value was -6.66.
For the variant G42C G44U U112A, the “polymerase ribozyme fitness (log ratio)” value was -1.44.
To A43G C53A U78C C88U belongs -1.22; to G42A G45C C49G U96A, -3.8.
Turning to G42C G44A G69C C94U C114A, the “polymerase ribozyme fitness (log ratio)” value was -5.06.
Turning to A43C C49U C70A C102U G110A G128C U131G, the “polymerase ribozyme fitness (log ratio)” value is -6.44.
As to G42C G48C C79A, the “polymerase ribozyme fitness (log ratio)” value was -6.14.
Turning to A43C C49A G52A C73U U81C A95C C123A, the “polymerase ribozyme fitness (log ratio)” value was -6.02.
As to G42A G60U, the “polymerase ribozyme fitness (log ratio)” value is -2.08.
In the case of G42A G44C A46U G71U A111G G120A, the “polymerase ribozyme fitness (log ratio)” value is -3.41.
Turning to G42A U116A, the “polymerase ribozyme fitness (log ratio)” value is -3.72.
Regarding A43G, the “polymerase ribozyme fitness (log ratio)” value was -1.32.
In the case of A43C, the “polymerase ribozyme fitness (log ratio)” value was -2.17.
Regarding G42A C72G, the “polymerase ribozyme fitness (log ratio)” value was -2.43.
For the variant G42U G52A C72U U78A G128U, the “polymerase ribozyme fitness (log ratio)” value is -4.36.
On to A43C A46C G60A U87A C101U, for which the “polymerase ribozyme fitness (log ratio)” value was -2.45.
To G42U C49A C53A U59C C82U belongs -2.94; to G42A G69U C89G, -0.811; to G42A G52C C62A, -4.83.
Take A43C C56U C79G: the “polymerase ribozyme fitness (log ratio)” value is -5.29.
The value for G42U U96C was -1.58; that for A43G A50G C101G C124A U129A was -3.82.
Regarding A43C G61U G117A, the “polymerase ribozyme fitness (log ratio)” value was -3.52.
Regarding G42A G61A C115A, the “polymerase ribozyme fitness (log ratio)” value was -1.62.
Consider A43C G61A, for which the “polymerase ribozyme fitness (log ratio)” value is -2.52.
Consider G42A G44U C99A A100U U109A, for which the “polymerase ribozyme fitness (log ratio)” value was -5.27.
